Conditions in all cases: both partners purified
One assay has as its target T1, PBP1B D443A (E. coli, UniProt P02919 46-844, D443A).
T1 construct: PBP1B, E. coli, residues 46-844, made by mutagenesis of pDML924; source: E. coli BL21(DE3), purified (membrane extract, HisTrap, thrombin, HiTrap SP ion exchange)
T1 sequence (looked up): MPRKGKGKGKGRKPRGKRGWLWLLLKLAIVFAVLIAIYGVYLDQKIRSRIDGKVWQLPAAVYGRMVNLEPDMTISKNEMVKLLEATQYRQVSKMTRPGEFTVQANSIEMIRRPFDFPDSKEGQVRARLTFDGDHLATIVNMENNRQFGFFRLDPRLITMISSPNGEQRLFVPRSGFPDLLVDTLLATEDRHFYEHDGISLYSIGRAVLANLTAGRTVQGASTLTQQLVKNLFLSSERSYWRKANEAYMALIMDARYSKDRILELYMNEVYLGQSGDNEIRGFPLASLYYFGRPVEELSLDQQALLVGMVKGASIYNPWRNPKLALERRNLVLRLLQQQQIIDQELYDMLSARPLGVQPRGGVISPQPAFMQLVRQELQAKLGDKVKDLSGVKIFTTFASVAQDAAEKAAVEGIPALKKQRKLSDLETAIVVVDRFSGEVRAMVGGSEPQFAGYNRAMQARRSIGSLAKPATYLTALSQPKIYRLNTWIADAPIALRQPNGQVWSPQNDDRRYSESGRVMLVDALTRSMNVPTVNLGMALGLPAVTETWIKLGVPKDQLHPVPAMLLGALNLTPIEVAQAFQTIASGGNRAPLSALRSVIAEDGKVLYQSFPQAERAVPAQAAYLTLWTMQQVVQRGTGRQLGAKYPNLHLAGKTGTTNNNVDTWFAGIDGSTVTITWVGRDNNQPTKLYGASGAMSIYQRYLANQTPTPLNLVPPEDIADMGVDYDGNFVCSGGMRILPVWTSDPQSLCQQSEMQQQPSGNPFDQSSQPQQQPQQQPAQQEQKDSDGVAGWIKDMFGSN
The experiment in a line: SPR; PBP1B versions immobilised to the chip surface; LpoB injected from 19.5 nM to 10 μM; apparent KD by non-linear regression, at least three independent experiments.

The target of another assay is T2, PBP1B R157A (E. coli, UniProt P02919 46-844, R157A).
T2 construct: PBP1B, E. coli, residues 46-844, made by mutagenesis of pDML924; source: E. coli BL21(DE3), purified (membrane extract, HisTrap, thrombin, HiTrap SP ion exchange)
T2 sequence (looked up): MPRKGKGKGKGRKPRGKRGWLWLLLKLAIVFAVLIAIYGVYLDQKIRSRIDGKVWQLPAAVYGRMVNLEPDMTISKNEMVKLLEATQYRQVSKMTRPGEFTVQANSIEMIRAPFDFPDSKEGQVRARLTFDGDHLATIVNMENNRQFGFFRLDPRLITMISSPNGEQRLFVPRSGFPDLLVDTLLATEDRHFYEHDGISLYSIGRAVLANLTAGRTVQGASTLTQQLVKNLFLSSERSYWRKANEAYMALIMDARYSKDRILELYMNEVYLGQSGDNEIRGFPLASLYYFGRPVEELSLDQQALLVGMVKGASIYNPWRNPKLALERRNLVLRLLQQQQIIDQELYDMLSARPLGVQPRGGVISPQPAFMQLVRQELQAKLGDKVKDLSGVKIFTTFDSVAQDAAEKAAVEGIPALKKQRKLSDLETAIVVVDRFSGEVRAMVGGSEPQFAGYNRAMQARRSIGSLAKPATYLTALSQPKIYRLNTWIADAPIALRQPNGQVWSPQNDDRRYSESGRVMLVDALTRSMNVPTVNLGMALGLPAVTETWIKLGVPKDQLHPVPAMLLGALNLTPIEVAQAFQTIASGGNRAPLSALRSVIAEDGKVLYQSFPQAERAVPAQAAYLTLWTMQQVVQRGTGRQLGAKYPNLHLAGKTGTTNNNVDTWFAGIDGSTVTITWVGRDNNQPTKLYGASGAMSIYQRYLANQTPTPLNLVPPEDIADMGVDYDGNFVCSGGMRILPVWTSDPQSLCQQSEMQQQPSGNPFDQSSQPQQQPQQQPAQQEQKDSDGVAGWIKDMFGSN
The experiment in a line: SPR; PBP1B versions immobilised to the chip surface; CpoB versions injected from either 3.9 nM to 2 μM or from 78 nM to 40 μM; apparent KD by non-linear regression, at least three independent experiments. (SPR reads the build-up and loss of mass on a sensor chip optically.)

For a further assay, the target named is T3, PBP1B I202F (E. coli, UniProt P02919 46-844, I202F).
T3 construct: PBP1B, E. coli, residues 46-844, made by mutagenesis of pDML924; Substitution first found in the suppressor screen of Markovski et al. 2016 (LpoB bypass); source: E. coli BL21(DE3), purified (membrane extract, HisTrap, thrombin, HiTrap SP ion exchange)
T3 sequence (looked up): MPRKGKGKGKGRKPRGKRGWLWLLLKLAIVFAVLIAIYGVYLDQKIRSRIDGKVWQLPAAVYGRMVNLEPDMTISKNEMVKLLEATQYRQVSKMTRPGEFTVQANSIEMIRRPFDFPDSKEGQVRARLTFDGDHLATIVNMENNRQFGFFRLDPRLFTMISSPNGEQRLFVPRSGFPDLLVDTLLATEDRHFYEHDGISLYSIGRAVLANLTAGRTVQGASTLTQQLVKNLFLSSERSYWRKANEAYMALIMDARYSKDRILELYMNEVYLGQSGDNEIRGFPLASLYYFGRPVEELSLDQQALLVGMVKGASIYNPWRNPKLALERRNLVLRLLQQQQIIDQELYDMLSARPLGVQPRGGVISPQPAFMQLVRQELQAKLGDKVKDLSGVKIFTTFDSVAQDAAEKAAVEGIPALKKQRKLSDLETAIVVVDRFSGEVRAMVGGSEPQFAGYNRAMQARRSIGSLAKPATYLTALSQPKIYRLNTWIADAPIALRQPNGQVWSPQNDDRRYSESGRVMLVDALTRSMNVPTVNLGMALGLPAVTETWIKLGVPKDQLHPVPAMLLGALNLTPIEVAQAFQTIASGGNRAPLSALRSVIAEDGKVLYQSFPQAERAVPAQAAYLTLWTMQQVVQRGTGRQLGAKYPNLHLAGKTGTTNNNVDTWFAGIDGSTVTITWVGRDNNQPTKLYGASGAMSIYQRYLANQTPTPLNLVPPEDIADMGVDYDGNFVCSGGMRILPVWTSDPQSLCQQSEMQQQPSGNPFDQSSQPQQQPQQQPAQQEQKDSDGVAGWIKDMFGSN
Described as above.

This note sets out measurements from publication PMC6220978, “Induced conformational changes activate the peptidoglycan synthase PBP1B” (Molecular Microbiology, 2018).

B1: LpoB (natural protein, E. coli)
chain: VGQREPAPVEEVKPAPEQPAEPQQPVPTVPSVPTIPQQPGPIEHEDQTAPPAPHIRHYDWNGAMQPMVSKMLGADGVTAGSVLLVDSVNNRTNGSLNAAEATETLRNALANNGKFTLVSAQQLSMAKQQLGLSPQDSLGTRSKAIGIARNVGAHYVLYSSASGNVNAPTLQMQLMLVQTGEIIWSGKGAVSQQ
notes: LpoB, E. coli; also called lipoprotein LpoB; source: E. coli BL21(DE3), purified (HisTrap, Superdex 200), as in Egan et al. 2014
As to B1, the Kd with PBP1B D443A is 289 nM.

B2: CpoB (full length) (natural protein, E. coli, UniProt P45955 27-263, looked up)
chain: QAPISSVGSGSVEDRVTQLERISNAHSQLLTQLQQQLSDNQSDIDSLRGQIQENQYQLNQVVERQKQILLQIDSLSSGGAAAQSTSGDQSGAAASTTPTADAGTANAGAPVKSGNANTDYNAAIALVQDKSRQDDAMVAFQNFIKNYPDSTYLPNANYWLGQLNYNKGKKDDAAYYFASVVKNYPKSPKAADAMFKVGVIMQDKGDTAKAKAVYQQVISKYPGTDGAKQAQKRLNAM
notes: CpoB, E. coli; The coiled-coil construct begins at residue 27, so the purified 'full length' protein may lack the signal peptide (surmise); source: E. coli BL21(DE3), purified (HisTrap, Superdex 200), as in Gray et al. 2015
With B2, the Kd was 147 nM with PBP1B R157A and more than 2000 nM in the assay with PBP1B I202F.
